Test results as given in paper PMC6525112, “Vitamin D (1,25(OH)2D3) induces α-1-antitrypsin synthesis by CD4^+ T cells, which is required for 1,25(OH)2D3-driven IL-10” (The Journal of Steroid Biochemistry and Molecular Biology, 2019).

How the values were obtained:
[1] = target: T1, NT-647 labelled recombinant α-1-antitrypsin (human, UniProt P01009 25-418, NT-647 label); test: MST; Monolith NT.115, LED 70%, MST power 20%; 0.5 μM NT-647 labelled α-1-antitrypsin incubated 30 min with C3a at 6 nM to 205 μM; settings: both partners purified
T1 construct: alpha-1-antitrypsin, human, recombinant from E. coli (not glycosylated); In the functional row the recombinant protein was used without the label; also called NT-647 labeled AAT; source: E. coli recombinant system, purified in-house
T1 sequence (P01009 25-418): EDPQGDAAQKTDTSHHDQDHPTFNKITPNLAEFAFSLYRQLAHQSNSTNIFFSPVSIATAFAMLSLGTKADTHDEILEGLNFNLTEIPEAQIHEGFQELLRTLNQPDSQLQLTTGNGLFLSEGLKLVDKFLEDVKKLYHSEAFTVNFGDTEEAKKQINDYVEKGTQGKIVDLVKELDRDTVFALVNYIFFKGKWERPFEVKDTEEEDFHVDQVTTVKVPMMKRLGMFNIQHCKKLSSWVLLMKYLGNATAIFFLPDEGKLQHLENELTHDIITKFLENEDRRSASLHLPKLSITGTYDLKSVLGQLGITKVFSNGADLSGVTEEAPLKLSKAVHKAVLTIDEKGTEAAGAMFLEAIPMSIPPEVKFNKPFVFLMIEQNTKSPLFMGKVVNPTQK

[2] = target: T2, α-1-antitrypsin (analyte of the SPR assay) (human, UniProt P01009 25-418); test: SPR; Biacore T200; biotinylated C3a immobilised by amine coupling on CM5 chip (800-1500 RU); serially diluted α-1-antitrypsin injected at 10 μl/minute in Dulbecco's PBS; regeneration 2.0 M KCl; blank surface subtracted; settings: both partners purified
T2 construct: alpha-1-antitrypsin, human; May be the same preparation as m1 or the unlabelled form of m2; also called AAT
T2 sequence (P01009 25-418): as above

B1: C3a (natural protein)
chain: not shown
notes: C3a anaphylatoxin, the cut product of complement C3; also called complement C3a; complement anaphylatoxin C3a; source: bought: Complement Technology, Inc
Kd [1]: 8.4 µM

B2: Biotinylated-C3a (natural protein)
chain: not shown
modifications: biotin (biotinamidohexanoic acid 3-sulfo-N-hydroxysuccinimide ester, random, no more than one biotin per molecule of C3a)
notes: C3a anaphylatoxin, the cut product of complement C3; also called randomly biotinylated C3a; complement C3a; source: bought: Complement Technology Inc; biotinylated in-house
Kd [2]: 7.53 µM
